Source: patent US11998613B2, “Antibody-drug conjugates containing an anti-mesothelin antibody and uses thereof” (DEVELOPMENT CENTER FOR BIOTECHNOLOGY, priority 2020, dated 2024)
Read-outs that look alike come from different tables or passages of the source. Non-standard residues stand in square brackets, D forms with d. Residues, ends and D or L forms follow the SMILES beside them. *: point of attachment. Dolaproine = CO[C@@H]([C@@H]1CCCN1)[C@@H](C)C(=O)O; Dil = CC[C@H](C)[C@H](NC)[C@@H](CC(=O)O)OC; X1 = C[C@@H](N*)[C@@H](O)c1ccccc1; NMeV = CN[C@H](C(=O)O)C(C)C

How the values were obtained:
[1] = system: Pancreatic cancer cell line KLM-1 (MSLN+); assay: In vitro cytotoxicity, CellTiter-Glo luminescent cell viability assay, KLM-1; format: cell-based, human; details: KLM-1, 72 hours treatment; read-out: Relative IC50 (nM of toxic payload/ADCs)
Description: (§1) Pancreatic cancer cell line KLM-1 was respectively grown in RPMI 1640 Medium (ATCC modification) medium supplemented with 10% fetal bovine serum. Ovarian carcinoma cell line OVCAR-3 was grown in RPMI 1640 Medium (ATCC modification) medium supplemented with 20% fetal bovine serum. The KLM-1 & OVCAR-3 cell lines were maintained in an atmosphere of 5% CO2 in a humidified 37° C. incubator. The day before treatment, cells were collected and seeded into 96-well plates (4,000 cells per well). On the second day, cells were treated with 3-fold serial dilution concentration of toxic payloads and ADCs. Each treatment was performed in eight triplicate data points. After the treatment of 72 hours, cell viability was assessed by CellTiter-Glo® kit (Promega) according to the manufacturer's instruction. At the end of the incubation, luminescence was measured using a SpectraMax i3x Multi Mode Detection Platform (Molecular Devices). Compound cytotoxicity was evaluated in comparison to cells treated with 0.05% PBS (ADCs) or 0.05% DMSO (toxic payload). IC50 values were calculated by fitting viability data with a four-parameter logistic equation using GraphPad prism 5.0 software.

[2] = system: Ovarian carcinoma cell line OVCAR-3 (MSLN+); assay: In vitro cytotoxicity, CellTiter-Glo luminescent cell viability assay, OVCAR-3; format: cell-based, human; details: read-out: Relative IC50 (nM of toxic payload/ADCs)
Description: as §1, with “The” for “Pancreatic cancer cell line KLM-1 was respectively grown in RPMI 1640 Medium (ATCC modification) medium supplemented with 10% fetal bovine serum. Ovarian carcinoma cell line OVCAR-3 was grown in RPMI 1640 Medium (ATCC modification) medium supplemented with 20% fetal bovine serum. The”

mesothelin protein = mesothelin protein (Homo sapiens, UniProt Q13421); assay: Affinity measurements and kinetic analysis using BIAcore (SPR), mesothelin immobilised; format: binding
mesothelin protein, sequence (Q13421 with tags, fused parts or gaps): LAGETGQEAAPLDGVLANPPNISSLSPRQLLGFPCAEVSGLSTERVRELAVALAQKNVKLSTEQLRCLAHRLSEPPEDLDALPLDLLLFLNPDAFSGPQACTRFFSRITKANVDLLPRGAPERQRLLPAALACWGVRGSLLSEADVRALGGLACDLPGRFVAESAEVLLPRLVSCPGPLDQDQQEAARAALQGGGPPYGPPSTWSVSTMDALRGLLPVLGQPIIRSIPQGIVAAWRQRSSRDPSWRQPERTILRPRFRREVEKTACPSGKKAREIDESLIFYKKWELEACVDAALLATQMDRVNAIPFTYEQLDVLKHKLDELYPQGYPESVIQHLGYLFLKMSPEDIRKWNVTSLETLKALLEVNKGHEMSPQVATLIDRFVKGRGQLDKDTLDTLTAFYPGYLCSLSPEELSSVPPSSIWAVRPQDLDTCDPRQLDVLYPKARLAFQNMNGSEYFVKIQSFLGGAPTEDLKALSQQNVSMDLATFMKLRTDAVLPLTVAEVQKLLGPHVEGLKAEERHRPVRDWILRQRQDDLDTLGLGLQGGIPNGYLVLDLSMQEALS
Description: To know the biding kinetics difference among individual antibodies, surface plasmon resonance (SPR) measurement with a BIAcore T200 (Cytiva Inc.) was used as previously described (Karlsson & Falt, (1997) J. Immunol Methods 200:121-133). Carboxymethylated dextran biosensor chips (CM5, Cytiva Inc.) were activated with N-ethyl-N′-(3-dimethylaminopropyl)-carbodiimide hydrochloride (EDC) and N-hydroxysuccinimide (NHS) according to the supplier's instructions. Mesothelin protein was diluted with 10 mM sodium acetate, pH 4.0, into 5 μg/ml before injection at a flow rate of 10 μL/minute to achieve approximately 1500 response units (RU) of coupled protein followed by the injection of 1M ethanolamine to block unreacted groups. For kinetics measurements, two-fold serial dilutions of anti-mesothelin mAb (0.3125 nM to 40 nM) were injected in HBS-EP+ Biacore running buffer provided by the manufacturer (Cytiva Inc.) at 25 degree C. at a flow rate of 30 μL/min, and binding responses on the mesothelin protein were corrected by subtraction of responses on a blank flow cell. Association rates (kon or ka) and dissociation rates (koff or kd) were calculated using a simple one-to-one Langmuir binding model with separate fittings of kon and koff was used. (Cytiva.™. Biacore Insight Evaluation Software).

[3] = system: KLM-1 human pancreatic cancer xenograft; assay: KLM-1 xenograft model (Example 45); details: 15 mg/kg IV once weekly for 3 weeks
Description: Formulations respectively comprising test article DCBPR2002-4(DBCO-vc-MMAE)(15 mg/kg), test article DCBPR2002-4(DBCO-vc-seco-DUBA)(15 mg/kg), test article DCBPR2002-4(DBCO-s-DM1) (15 mg/kg), test article DCBPR2002-2(DBCO-vc-MMAE)-2(DBCO-vc-seco-DUBA) (15 mg/kg), test article DCBPR2002-2(DBCO-vc-MMAE)-2(DBCO-s-DM1) (15 mg/kg), test article DCBPR2002-2(DBCO-vc-seco-DUBA)-2(DBCO-s-DM1) (15 mg/kg), and a corresponding vehicle were formulated by diluting the stock with a 25 mM sodium citrate buffer (pH6.5). Each of the formulations was administered intravenously (IV) once weekly for three weeks.
The KLM-1 cells were maintained in vitro as a monolayer culture in RPMI-1640 medium supplemented with 10% fetal bovine serum at 37° C. in an atmosphere of 5% CO2 in air. The tumor cells were routinely sub-cultured twice weekly by trypsin-EDTA treatment. The cells growing in an exponential growth phase were harvested and counted for tumor inoculation.
Male NOD SCID mice at age of 6-7 weeks were purchased from BioLasco Taiwan Co., LTD. and quarantined for one week. Five mice were housed in each cage. All animals were hosted in the animal facility with a 12-h light/12-h dark cycle at 19-25° C. Animals had free access to rodent pellet foods and water ad libitum.
KLM-1 cells were subcutaneously (SC) implanted (4×10^6 cells in 1:1 PBS/matrigel mixture at 0.1 mL per mouse) into the right flank of male NOD SCID mice. When the average tumor volume had reached 300 mm^3, the mice were randomly divided into 7 groups (N=6 per group). Each of the vehicle, DCBPR2002-4(DBCO-vc-MMAE), DCBPR2002-4(DBCO-vc-seco-DUBA), DCBPR2002-4(DBCO-s-DM1), DCBPR2002-2(DBCO-vc-MMAE)-2(DBCO-vc-seco-DUBA), DCBPR2002-2(DBCO-vc-MMAE)-2(DBCO-s-DM1), DCBPR2002-2(DBCO-vc-seco-DUBA)-2(DBCO-s-DM1) was intravenously administered as 15 mg/kg once weekly for 3 weeks.
The tumor volumes, body weights, mortality, and signs of overt toxicity were monitored and recorded three times weekly for 28 days. Tumor volumes were measured three times per week using calipers and calculated according to the formula: Tumor Volume=(w2×l)/2, where w=width and l=length in diameter (mm) of the tumor. […] One-way ANOVA followed by Dunnett's test was applied for comparison between the vehicle and test article-treated groups. Differences are considered significant at *P<0.05. Animals were weighed three times weekly until the completion of the study.

[4] = BIAcore T200, 25 degree C, 1:1 Langmuir model

CC[C@H](C)[C@@H]([C@@H](CC(=O)N1CCC[C@H]1[C@H](OC)[C@@H](C)C(=O)N[C@H](C)[C@@H](O)c1ccccc1)OC)N(C)C(=O)[C@@H](NC(=O)[C@@H](NC)C(C)C)C(C)C [MMAE, monomethyl auristatin E, reference compound] (H-[NMeV]V[Dil][Dolaproine]-X1)
IC50 [1]: 0.3 nM
IC50 ([2]; OVCAR-3, 72 hours treatment): 0.3 nM

CC[C@@]1(O)C(=O)OCc2c1cc1n(c2=O)Cc2c-1nc1cc(F)c(C)c3c1c2[C@@H](N)CC3 [Exatecan, reference compound]
IC50 ([2]; Homo sapiens, OVCAR-3, 72 h): 20.1 nM

CC[C@@]1(O)C(=O)OCc2c1cc1n(c2=O)Cc2c-1nc1cc(F)c(C)c3c1c2[C@@H](NC(=O)CO)CC3 [DXd, reference compound]
IC50 ([2]; OVCAR-3, 72 hours treatment): > 100 nM

SS1: mouse anti-mesothelin antibody clone SS1, SEQ ID NOs: 7 and 8, of U.S. Pat. No. 7,081,518 B1; expressed as human Fc chimera [reference compound]
Rmax(RU) (mesothelin protein; BIAcore T200): 218.2 RU
ka (mesothelin protein; [4]): 3.415e+06 M⁻¹ s⁻¹
kd (mesothelin protein; [4]): 1.194e-05 s⁻¹
kd (mesothelin protein; BIAcore T200, 25 degree C, 1:1 Langmuir model, listed as chimera SS1 mAb): 1.194e-05 s⁻¹

COc1cc2cc(c1Cl)N(C)C(=O)C[C@H](OC(=O)[C@H](C)N(C)C(=O)CCS)[C@]1(C)O[C@H]1[C@H](C)[C@@H]1C[C@@](O)(NC(=O)O1)[C@H](OC)/C=C/C=C(\C)C2 [DM1, reference compound]
IC50 [1]: 2.1 nM
IC50 ([2]; OVCAR-3, 72 hours treatment): 1.6 nM

B1: DCBPR2002-2(DBCO-vc-seco-DUBA)-2(DBCO-s-DM1): dual-payload ADC: DCBPR2002-2(DBCO-vc-seco DUBA)-2Az reacted with DBCO-S-DM1; DAR ~4 (conjugate)
VH: QVQLVQSGAEVKKPGASVKVSCKASGYSFTGYTMNWVRQAPGQGLEWMGLITPYNGASSYNQKFRGRVTMTRDTSISTAYMELSRLRSDDTAVYYCARGGYDGRGFDYWGQGTLVTVSS
VL: EIVLTQSPATLSLSPGERATLSCSASSSVSYMHWYQQKPGQAPRLLIYDTSKLASGIPARFSGSGSGTDFTLTISSLEPEDFAVYYCQQWSKHPLTFGQGTKVEIKR
body weight changes [3]: No body weight loss was observed
ranking of efficacy potency [3]: DCBPR2002-4(DBCO-vc-seco-DUBA)=DCBPR2002-2(DBCO-vc-MMAE)-2(DBCO-vc-seco-DUBA)=DCBPR2002-2(DBCO-vc-seco-DUBA)-2(DBCO-s-DM1)>DCBPR2002-4(DBCO-vc-MMAE)>DCBPR2002-2(DBCO-vc-MMAE)-2(DBCO-s-DM1)>DCBPR2002-4(DBCO-s-DM1)
IC50 [1]: 27 nM
IC50 ([2]; OVCAR-3, 72 hours treatment): 36.3 nM

B2: DCBPR2002-4(DBCO-s-DM1) (conjugate)
VH: QVQLVQSGAEVKKPGASVKVSCKASGYSFTGYTMNWVRQAPGQGLEWMGLITPYNGASSYNQKFRGRVTMTRDTSISTAYMELSRLRSDDTAVYYCARGGYDGRGFDYWGQGTLVTVSS
VL: EIVLTQSPATLSLSPGERATLSCSASSSVSYMHWYQQKPGQAPRLLIYDTSKLASGIPARFSGSGSGTDFTLTISSLEPEDFAVYYCQQWSKHPLTFGQGTKVEIKR
body weight changes [3]: No body weight loss was observed
ranking of efficacy potency [3]: DCBPR2002-4(DBCO-vc-seco-DUBA)=DCBPR2002-2(DBCO-vc-MMAE)-2(DBCO-vc-seco-DUBA)=DCBPR2002-2(DBCO-vc-seco-DUBA)-2(DBCO-s-DM1)>DCBPR2002-4(DBCO-vc-MMAE)>DCBPR2002-2(DBCO-vc-MMAE)-2(DBCO-s-DM1)>DCBPR2002-4(DBCO-s-DM1)
IC50 [1]: 13.9 nM
IC50 ([2]; OVCAR-3, 72 hours treatment): 2.6 nM

B3: DCBPR2002-2(DBCO-vc-MMAE)-2(DBCO-s-DM1): dual-payload ADC: DCBPR2002-2(DBCO-vc-MMAE)-2Az reacted with DBCO-S-DM1; DAR ~4 (conjugate)
VH: QVQLVQSGAEVKKPGASVKVSCKASGYSFTGYTMNWVRQAPGQGLEWMGLITPYNGASSYNQKFRGRVTMTRDTSISTAYMELSRLRSDDTAVYYCARGGYDGRGFDYWGQGTLVTVSS
VL: EIVLTQSPATLSLSPGERATLSCSASSSVSYMHWYQQKPGQAPRLLIYDTSKLASGIPARFSGSGSGTDFTLTISSLEPEDFAVYYCQQWSKHPLTFGQGTKVEIKR
body weight changes [3]: No body weight loss was observed
ranking of efficacy potency [3]: DCBPR2002-4(DBCO-vc-seco-DUBA)=DCBPR2002-2(DBCO-vc-MMAE)-2(DBCO-vc-seco-DUBA)=DCBPR2002-2(DBCO-vc-seco-DUBA)-2(DBCO-s-DM1)>DCBPR2002-4(DBCO-vc-MMAE)>DCBPR2002-2(DBCO-vc-MMAE)-2(DBCO-s-DM1)>DCBPR2002-4(DBCO-s-DM1)
IC50 [1]: 15.4 nM
IC50 ([2]; OVCAR-3, 72 hours treatment): 4.6 nM
